Measurements: patent publication US20130189714A1, “METHOD FOR THE DETECTION AND/OR QUANTIFICATION OF THE INTERACTION OF PLATELETS WITH INTERACTION PARTNERS” (SANOFI, priority 2010, published 2013)
One block for each substance: values may come before it.

Key:
[1] = molecular target: collagen receptor on live human platelets (human); experiment: platelet adhesion to rat tail collagen 1 coated wells vs BSA, 6 plates under automated conditions, Acumen cytometry
[2] = molecular target: platelet glycoprotein GpIb alpha (CD42b antigen), on live human platelets (human) (UniProt P07359); experiment: platelet adhesion to vWF-A1 coated wells vs BSA-coated wells, optimized washer settings, Acumen cytometry
Chain of platelet glycoprotein GpIb alpha (CD42b antigen), on live human platelets (human) (P07359 17-652): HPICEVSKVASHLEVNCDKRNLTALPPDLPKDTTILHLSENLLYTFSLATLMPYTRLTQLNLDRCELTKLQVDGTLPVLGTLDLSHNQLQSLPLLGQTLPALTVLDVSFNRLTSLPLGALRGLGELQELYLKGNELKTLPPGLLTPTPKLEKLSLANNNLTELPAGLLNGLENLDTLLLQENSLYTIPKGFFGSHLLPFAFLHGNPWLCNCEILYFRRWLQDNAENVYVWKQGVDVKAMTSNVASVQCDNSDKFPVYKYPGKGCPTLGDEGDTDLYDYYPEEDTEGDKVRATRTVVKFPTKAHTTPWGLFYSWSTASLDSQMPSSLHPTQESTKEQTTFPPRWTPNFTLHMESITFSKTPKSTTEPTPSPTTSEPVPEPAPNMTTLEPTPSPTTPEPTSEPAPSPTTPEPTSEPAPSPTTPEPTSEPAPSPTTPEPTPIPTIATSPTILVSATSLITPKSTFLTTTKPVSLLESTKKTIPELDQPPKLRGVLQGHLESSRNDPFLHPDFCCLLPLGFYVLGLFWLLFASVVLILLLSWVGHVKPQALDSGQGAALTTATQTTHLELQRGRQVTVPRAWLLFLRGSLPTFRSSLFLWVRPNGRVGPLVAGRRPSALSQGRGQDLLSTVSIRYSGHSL

[3] = molecular target: platelet glycoprotein GpIb alpha (CD42b antigen), on live human platelets (human) (UniProt P07359); experiment: platelet adhesion to coated wells, optimized wash program, Acumen cytometry; reference BSA-coated wells
[4] = molecular target: platelet glycoprotein GpIb alpha (CD42b antigen), on live human platelets (human) (UniProt P07359); experiment: platelet adhesion to vWF-A1 coated wells vs BSA, automated run of 30 plates, Acumen cytometry
[5] = molecular target: platelet glycoprotein GpIb alpha (CD42b antigen), on live human platelets (human) (UniProt P07359); experiment: platelet adhesion to vWF-A1 coated wells, AK2 at 2 ug/ml, Acumen cytometry

Chain of vWF-A1 (von Willebrand factor A1 domain, Aa 475-706), His-tagged recombinant protein (ligand) (chain): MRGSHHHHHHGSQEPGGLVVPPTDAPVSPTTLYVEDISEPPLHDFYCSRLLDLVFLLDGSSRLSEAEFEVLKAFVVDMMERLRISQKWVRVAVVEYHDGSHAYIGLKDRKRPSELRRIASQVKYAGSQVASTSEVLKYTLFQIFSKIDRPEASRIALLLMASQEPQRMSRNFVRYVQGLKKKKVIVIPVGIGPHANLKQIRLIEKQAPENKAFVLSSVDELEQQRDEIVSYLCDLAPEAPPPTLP

S/B [1]: 20 fold
Substance: Collagen I (rat tail, SIGMA C8897) (from UniProt P02454 152-1207; P02466 86-1125) (ligand)

S/B [2]: 78 fold | S/B (number platelets attached to vWF-A1 vs BSA) [3]: 70 fold | S/B [4]: 20 fold
Substance: vWF-A1 (von Willebrand factor A1 domain, Aa 475-706), His-tagged recombinant protein (ligand)

% inhibition of platelet adhesion [5]: 90%
Substance: Mouse anti-human CD42b monoclonal antibody, clone AK2 (Chemicon international, catalog No. CBL166)
